Test results published in the supplement of paper PMC9170038.

Assays:
MS2 coat protein [1] = experiment: apparent KD of MS2 coat protein, switch ON state; designed switch direction (-1 OFF switch, 1 ON switch): -1; higher = weaker reporter binding; conditions: FMN input: 0 or 200 uM; Eterna round: R93 (includes R88 designs)
How it was run: (§1)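 Illumina sequencing clusters were used for on-chip transcription of designed RNA switches. Titration with SNAP-549-labelled MS2 coat protein followed, in twofold steps from 0.7 or 1.5 nM to 3 µM in 100 mM Tris-HCl pH 7.5, 80 mM KCl, 4 mM MgCl2, without or with constant ligand. Apparent KD is each design's median of fits to normalised cluster binding curves.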

MS2 coat protein [2] = experiment: apparent KD of MS2 coat protein, switch OFF state (with FMN for OFF switches, without FMN for ON switches); designed switch direction (-1 OFF switch, 1 ON switch): -1; higher = weaker reporter binding; conditions: FMN input: 0 or 200 uM; Eterna round: R93 (includes R88 designs)
How it was run: as §1

Sequence | apparent KD of MS2 coat protein (MS2 coat protein [1]) [nM] | apparent KD of MS2 coat protein (MS2 coat protein [2]) [nM]
CUCAAGUAAGGAUAUAGAAGAAAAGAAGAGAAAGAAAAGAACUAGAAGGUACAUGAGGAUCACCCAUGUAAGAA [EteRNA is fun!] | 41.6 | 21.5
AACAUGUGAGGAUAUGUACGAAAAAAUAAAAAAAUAAAAGUACAGAAGGCACAUGAGGAUCACCCAUGUGAAAA [EX4 395: Minimal 8] | 176 | 271
AGUCAUACAGGAUAUACAUGAGGAUCACCCAUGUAAAUCCUAAAAAAAUGAUCCUCAUGUAGAAGGGUAUGACA [EX3 221: Super Stable 21] | 16.8 | 14.4
AAAAAGGCAGGAUAUACAAAAAAAAAAAAAAAAAAGGAGGGACAUGAGGAUCACCCAUGUAGAAGGGCCAAAAA [Kai Theodor Erikson] | 97.4 | 121
AAAACUGGAGGAUAUACAUGAGGAUCACCCAUGUGUGGAUGAGCUGAGACGGCAUCACGUAGAAGGCCACAAAA [Gilly Gone Silly 39 - Jieux - Exclusion 3] | 33.2 | 44
AGUUGGCGAGGAUAUACAUGAGGAUCACCCAUGUGAAAUCGCGAAAAAAUAGGGAAAAGUAGAAGGCGCUGACA [73%, Moding Norbert Elias, 18] | 11 | 21
AAGGGACAUGAGGAUCACCCAUGUGAGGAUAUGCUAUGGAAAAUAAAAAAUAAACAUAGCAGAAGGCAUAAAAA [Mat - Exclusion 1 - Eli mod - D37] | 64.8 | 72.3
AAAAAGUCAGGAUAUACGAAAGUGCGAAAGCACAAAAAGGGACAUGAGGAUCACCCAUGUAGAAGGGACAAGAA [Married to this design, 61% 3] | 45.2 | 50.4
AAGAAUGCAGGAUAUACAAAAUAAAAGAAAAGAAAGAAAGAACAUGAGGAUCACCCAUGUAGAAGGGCAAAGAA [Menwadjre Sihathor] | 30 | 28.2
CUCAAGUUAGGAUAUCUAAGAAAAGAAGAGAAAGAAAAGAAAGAGAAGGAACAUGAGGAUCACCCAUGUAAGAA [EteRNA is fun!] | 18.4 | 25.7
AAAAAUCGAGGAUAUACAUGAGGAUCACCCAUGUCAAAAAAUGACUACACAAAAGAAAGUAGAAGGCGAUAAAG [Mat - Exclusion 3 - Mayanna mod - D129] | 25 | 36.6
GGUUGGCGAGGAUAUACAUGAGGAUCACCCAUGUGAGAGAAAAAAGAGAGAAAGAAAAGUAGAAGGCGCUGACG [salish99-ex3-52] | 47.9 | 97.8
AACUAGCUAGGAUAUACAUGAGGAUCACCCAUGUAAAAAAAAAAAAAAAGAUCAAAAUGUAGAAGGAGCUAGUA [Design 2 - Brourd - Exclusion 3] | 59.6 | 58.5
AGCUAGUCAGGAUAUACGAAAAUGAUAGAAGACGUAAGGGAACAUGAGGAUCACCCAUGUAGAAGGGACUAGCA [Diamond 47] | 24.7 | 63.1
AACAGUACAGGAUAUACAUGAGGAUCACCCAUGUGAAAAUUAAGUGGCGUACCACAAUGUAGAAGGGUACUGAA [Mat - Exclusion 3 - Eli mod - D46] | 103 | 232
AAGAAGUCAGGAUAUACAUGAGGAUCACCCAUGUAAAAGAAAGAAAAGGGAAAGAAAAGUAGAAGGGACAAGAA [Menkheperre Thutmose III] | 22.5 | 208
AAAAAACAUGAGGAUCACCCAUGUGAGGAUAUGACGUAAAUAAAGAAAGAAUAAAUCGUCAGAAGGCACACCAA [Mat - Exclusion 1 - Eli mod - D71] | 31.4 | 49.2
AAAAAACAUGAGGAUCACCCAUGUGAGGAUAUCGCUAGUGAGACCCUAGUGUCAGUGAUGAGAAGGCACAUAAA [Brourd 613 Mod 8 - Jieux - Exclusion 1] | 32.8 | 32.5
GUCAGCUGAGGAUAUACAGGUGAGGCCGCAGGACAAAAUAUACAUGAGGAUCACCCAUGUAGAAGGCGGAAGAC [Vegea] | 33.8 | 44.5
AAAUAGCAAGGAUAUACAUGAGGAUCACCCAUGUAAAAAUGGAAAGUAAAAGAAUAAAGUAGAAGGUGCAAAUA [Ex 3 Tesla 2] | 20.6 | 36.9
ACCAAUGGAGGAUAUACAUGAGGAUCACCCAUGUUUAUCCUACAUAGGUGAAAAACAUGUAGAAGGCCAUAGGA [EX3 237: Super Stable 37] | 11.1 | 12
CUCAUGUCAGGAUAUCAGUAGUAAAAAAAUAAAAUUACUACUGAGAAGGGACAUGAGGAUCACCCAUGUCCAAA [EX4 367: Super Stable 67] | 93.1 | 36.1

Sequence | apparent KD of MS2 coat protein (MS2 coat protein [1]) [nM] | apparent KD of MS2 coat protein (MS2 coat protein [2]) [nM]
AAAUAGCAAGGAUAUACAUGAGGAUCACCCAUGUAAGGAUGGUAAGUAUUAGAAGAAAGUAGAAGGUGCAAAUA [Ex 3 Tesla 5] | 33.6 | 55.3
AGUAAACAUGAGGAUCACCCAUGUGAGGAUAUCGAAAAGAAAAGAAAAGAAAGAAGAAUGAGAAGGCACAAGAA [Huni] | 33.3 | 37
AAAAAGCGAGGAUAUACAUAGCUAAGACAAAUAAGCAAGGGACAUGAGGAUCACCCAUGUAGAAGGCGCAAAAA [Exclusion 2-01... 60% 1] | 34.7 | 97.3
AAAAAACAUGAGGAUCACCCAUGUGAGGAUAUCCUGAAUGAAAUAAAAUAUCUCGAAAGGAGAAGGCGCAAAAA [Ex 1 May 33] | 67.7 | 49.9
AAGAAGUGAGGAUAUCGAAAAGAAAAGAAAAGAAAAGAAAACGAGAAGGCACAUGAGGAUCACCCAUGUAAGAA [Setutre Darius I the Great] | 28.1 | 41
AAGAAACAUGAGGAUCACCCAUGUCAGGAUAUUCAAAAGAAAAGAAAAGAAAGAAGAAGAAGAAGGGACAAAGG [Neferkare II] | 57.6 | 66.1
AAAAAGUAAGGAUAUACAAAAGAAAACACAAAAAAAAAAAAACAUGAGGAUCACCCAUGUAGAAGGUACAAAAA [Ex2 Malc#1] | 27.3 | 19.3
AAGAAGUGAGGAUAUGCUGCUCGUCACUUGCGUGAUGAGUAGCAGAAGGCACAUGAGGAUCACCCAUGUGGGAA [Modifying Chris (69%) Late G segment, early G segment 3] | 89.1 | 110
AAAUUGUCAGGAUAUCGUAGAACAGGGAAAACCUGGAGCUACGAGAAGGGACAUGAGGAUCACCCAUGUAAAAC [May 93] | 62.7 | 71.1
AAAAGCUCAGGAUAUACGGUCUGUUGUUGAAAAAGUAAAAAACAUGAGGAUCACCCAUGUAGAAGGGAGCGAAA [Exclusion2-cac1] | 39.7 | 115
AGUUGGCGAGGAUAUACAUGAGGAUCACCCAUGUGAAAAAAGGGCUCGAAAGAGAAAAGUAGAAGGCGCUGACA [73%, Moding Norbert Elias, 7] | 24.8 | 98.4
AAAAUACAUGAGGAUCACCCAUGUGAGGAUAUUAGAAAGGGAAUAAAAUAACUUAAACUAAGAAGGCACAAAAA [Ex 1 May 28] | 18.2 | 27.7
GAAAACAGAGGAUAUACAAAAUUAUGACGAAAGUCAUAAAAACAUGAGGAUCACCCAUGUAGAAGGCUGAAGAA [Meechl MS2 Ex2] | 28.2 | 21.6
AUCAACCUAGGAUAUACAUGAGGAUCACCCAUGUACAGAUACAACAAGGGAAACACACGUAGAAGGAGGAAGAU [JR_Exc003_Sub1205] | 24.4 | 52.1
GGUUGGCGAGGAUAUACAUGAGGAUCACCCAUGUGAGAGAAAAAAGUGAGAAAGAAAAGUAGAAGGCGCUGACA [salish99-ex3-03] | 58.8 | 283
AAAAAACAUGAGGAUCACCCAUGUGAGGAUAUGAAAAAACAAAAAAAAAAGUAAACAAUCAGAAGGCACAACAA [JR_Exc--1_Sub1211] | 27.3 | 24.4
UAAGGACAUGAGGAUCACCCAUGUGAGGAUAUGCUCUACGAACGUUUAUUUAUGAGAAGCAGAAGGCACAUUUU [try 2] | 50.4 | 127
AAAGGACGAGGAUAUACAUGAGGAUCACCCAUGUAAAAAACAUAGUAAAAGUGCUUGUGUAGAAGGCGUCCAAA [Meechl Ex3 2 R2 v9] | 78.1 | 194
AAAAAGUAAGGAUAUACAAGAGAAAACACAAAAAAAAAAAAACAUGAGGAUCACCCAUGUAGAAGGUACAAAAA [Diamond 82] | 27.5 | 24.6
AGAAAGUCAGGAUAUGCGAAGGCGUCUGAUAGACGAGGCUAGCAGAAGGGACAUGAGGAUCACCCAUGUGAAGA [Mat - Exclusion 4 - Eli mod - D85] | 55 | 86.4
AAAAUACAUGAGGAUCACCCAUGUGAGGAUAUUAGAAAGGGAAUAAAAUAACCCAAACUAAGAAGGCACAAAAA [Ex 1 May 27] | 28.5 | 35.3
AGCACGUCAGGAUAUACGAACACAAAGGGUAACAACAAGGGACAUGAGGAUCACCCAUGUAGAAGGGACAAGCA [Diamond 95] | 73.5 | 79.2
